What all share (assay type): cell-based
For experiment [1], the system named is HEK293 cells. Put plainly: Screening of linker variant cAMP biosensors in HEK293 cells with isoproterenol. The text has this: The linker variants of Example III were inserted into a CP-FF construct as in Example II. The construct further comprised a mutant RIIβb cAMP binding site containing the substitutions at […] and […]. As in Example II, the constructs were first screened in E. coli to identify linker sequences which provided improved luminescence, improved response or both. The linker variants were then screened for improved luminescence signal, response to isoproterenol, or both in HEK293 cells. On day 1, 15,000 HEK293 cells were plated to the individual wells of a 96-well plate. On day 2, cells were transiently transfected with plasmid DNAs encoding a cAMP biosensor variant comprising a variant linker sequence using the LT1 reagent from Mirus Bio. […] Isoproterenol was added to 10 μM final concentration to the individual wells, and luminescence was monitored continuously in time (Mithras luminometer; 1 second integration time). Once measurements were complete (>30 minutes), cells were lysed, and Renilla luciferase activity was measured. Biosensor luminescence (FF RLU) was normalized using the Renilla luminescence signal (RL norm), and fold-induction (response) was calculated by dividing the normalized biosensor luminescence from isoproterenol-treated wells by the normalized luminescence from control wells that received no compound addition (Figure). […]

In experiment [2] the test system is HEK293 cells. Briefly: Luminescence and fold response of biosensor clones in HEK293 cells after isoproterenol or FSK. The following applies: for Isoproterenol-5 minutes Induced / Isoproterenol-5 minutes Resp: 5 minutes after isoproterenol; for Forskolin (FSK) Induced / Forskolin (FSK) Resp: 15 minutes after FSK; for Isoproterenol-15 minutes Induced / Isoproterenol-15 minutes Resp: 15 minutes after isoproterenol; for Isoproterenol-5 minutes Resp / Forskolin (FSK) Resp / Isoproterenol-15 minutes Resp: RLU induced / RLU uninduced; for Isoproterenol-5 minutes Uninduced / Forskolin (FSK) Uninduced / Isoproterenol-15 minutes Uninduced: uninduced cells; for Forskolin (FSK) Uninduced / Isoproterenol-15 minutes Uninduced: 15 minutes. As for the experimental part:
B. HEK293 cells were transiently transfected with plasmid DNAs encoding various biosensor mutants as above. These biosensor mutants contained the E284A and V316I mutation in the RIIbetaB cAMP binding domain and the modified linker sequence 7A1 (GSNWDSGCSREG; SEQ ID NO: 129). The clones also contained the additional mutations outlined in Table 5. Cells were equilibrated for 2 hours at room temperature with 2 mM EF-Luc. Luminescence was measured 5 and 15 minutes after addition of the isoproterenol and 15 minutes after addition of FSK. Fold response (response; Resp.) was calculated by dividing relative light units (RLUs) from induced cells by the RLUs from uninduced cells. As a control, the biosensor GS358 and 7A1 were included.

For experiment [3], the target named is T1, dopamine D2 receptor (Homo sapiens, UniProt P14416).
T1 construct: expressed in transfected cells
T1 sequence (P14416 whole entry, species assumed): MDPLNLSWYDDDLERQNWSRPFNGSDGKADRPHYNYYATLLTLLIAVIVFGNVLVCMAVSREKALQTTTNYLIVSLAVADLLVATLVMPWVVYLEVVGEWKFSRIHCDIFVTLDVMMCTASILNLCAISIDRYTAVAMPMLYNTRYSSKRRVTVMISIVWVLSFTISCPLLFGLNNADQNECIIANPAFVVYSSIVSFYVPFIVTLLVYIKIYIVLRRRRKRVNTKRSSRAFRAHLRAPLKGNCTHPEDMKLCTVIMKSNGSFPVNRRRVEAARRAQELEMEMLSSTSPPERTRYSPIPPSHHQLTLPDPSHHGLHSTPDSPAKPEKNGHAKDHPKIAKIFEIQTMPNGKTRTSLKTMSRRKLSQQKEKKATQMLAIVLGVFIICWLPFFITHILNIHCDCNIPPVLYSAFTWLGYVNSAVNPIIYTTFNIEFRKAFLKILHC
Put plainly: Forskolin, dopamine and haloperidol responses of biosensor clones in HEK293 cells stably expressing the dopamine D2 receptor. The conditions noted are these: for Dopamine Induced: 3 μM FSK + 0.3 μM dopamine; for Dopamine Induced / Forskolin (FSK) Induced / Forskolin (FSK) Uninduced: 10 minutes; for Forskolin (FSK) Induced: 3 μM FSK; for Halo Induced: 10 μM Haloperidol pre-treatment, then 3 μM FSK + 0.3 μM dopamine; for Dopamine Response: RLU agonist-treated / forskolin-treated; for Forskolin (FSK) Response: RLU forskolin-treated / untreated; for Halo Response: RLU haloperidol then FSK + dopamine / FSK + dopamine alone; for Forskolin (FSK) Uninduced: untreated (media alone). The text has this: To measure changes in the intracellular concentration of cAMP, HEK293 cells are transiently transfected with mutant cAMP biosensors followed by treatment with compounds known to increase or decrease the intracellular cAMP concentration through GPCR activation of Gs- or Gi-coupled receptors, respectively.
HEK293 cells stably expressing the dopamine D2 receptor were transiently transfected with the mutant cAMP biosensors from Example VIIB. Cells were also transfected with either 7A1 (Example III) or GS358 (parent biosensor) as controls. Cells were equilibrated for 2 hours at room temperature using 2 mM EF-luc. Antagonist assay wells were pre-treated for 10-15 minutes at room temperature with 10 μM Haloperidol (Halo). Next, the following reagents were added to their respective wells: media alone to “untreated” samples; 3 μM forskolin (FSK) to “forskolin-treated” samples; 3 μM FSK+0.3 μM dopamine to “agonist-treated” samples; and 3 μM FSK+0.3 μM dopamine to the aforementioned wells pre-treated with Halo. The cells were then incubated at room temperature for 10 minutes and luminescence was measured. Fold response for FSK was calculated by dividing the RLU from “forskolin-treated” cells by the RLU from the “untreated” cells. Fold response for dopamine treatment was calculated by dividing the RLU from the “agonist-treated” cells by the RLU from the “forskolin-treated” cells. Fold response for Haloperidol treatment was calculated by dividing the RLU from the cells treated with haloperidol then forskolin plus dopamine by the RLU of cells treated with forskolin plus dopamine alone.

The target of experiment [4] is T2, GPR41 (Homo sapiens, UniProt O14843).
T2 sequence (O14843 1-346): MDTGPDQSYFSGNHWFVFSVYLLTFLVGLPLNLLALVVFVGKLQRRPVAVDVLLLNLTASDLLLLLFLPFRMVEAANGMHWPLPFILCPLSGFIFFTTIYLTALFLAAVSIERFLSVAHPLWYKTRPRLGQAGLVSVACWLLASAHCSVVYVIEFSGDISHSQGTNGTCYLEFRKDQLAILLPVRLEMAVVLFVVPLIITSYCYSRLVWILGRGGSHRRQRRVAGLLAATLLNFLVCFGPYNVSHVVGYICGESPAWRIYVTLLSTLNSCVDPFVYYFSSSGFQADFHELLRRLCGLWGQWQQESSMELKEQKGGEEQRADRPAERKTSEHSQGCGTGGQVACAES
Briefly: Sodium proprionate CRC with biosensor variants in HEK293 cells stably expressing GPR41. How it is done:
(§1) After 24 hours, the cells were transiently transfected with one of the cAMP biosensor variants (Tables 7A and 7B). After another 24 hours, the cells were equilibrated for 2 hours at room temperature using 5 mM EF-luc in CO2 independent media with 10% FBS. Prior to the addition of the compounds, luminescence was measured. The compounds (12× stock in CO2 independent media without FBS) were then added to the cells. For GPR41 expressing cells, sodium proprionate CRC was added. […] The cells were allowed to incubate another 30 minutes and luminescence read on a Varioskan Flash. EC50 values and fold responses were calculated for each of the clones with each of the compounds with or without FSK. In addition, variants […]7 (Example VIIB), 16A2 (Example VIIB) and GS358 were also screened.

Experiment [5] deals with GPR41. Described as above. The following applies: ratio of RLU of FSK treated well to untreated well. How it is done:
as §1

B1: 7A1: cAMP biosensor, RIIβB E284A and V316I, linker …; SEQ ID NO:113, 114 (protein)
chain: MPGAVGKVVPFFEAKVVDLDTGKTLGVNQRGELCVRGPMIMSGYVNNPEATNALIDKDGWLHSGDIAYWDEDEHFFIVDRLKSLIKYKGYQVAPAELESILLQHPNIFDAGVAGLPDDDAGELPAAVVVLEHGKTMTEKEIVDYVASQVTTAKKLRGGVVFVDEVPKGLTGKLDARKIREILIKAKKGSSGGSGGSGGGMYESFIESLPFLKSLEFSERLKVVDVIGTKVYNDGEQIIAQGDSADSFFIVESGEVKITMKRKGKSEVEENGAVEIARCSRGQYFGELALVTNKPRAASAHAIGTVKCLAMDVQAFERLLGPCMEIMKRNIATYEEQLVALFGTNMDIVAKNIKKGPAPFYPLEDGTAGEQLHKAMKRYALVPGTIAFTDAHIEVDITYAEYFEMSVRLAEAMKRYGLNTNHRIVVCSENSLQFFMPVLGALFIGVAVAPANDIYNERELLNSMGISQPTVVFVSKKGLQKILNVQKKLPIIQKIIIMDSKTDYQGFQSMYTFVTSHLPPGFNEYDFVPESFDRDKTIALIMNSSGSTGLPKGVALPHRTACVRFSHARDPIFGNQIIPDTAILSVVPFHHGFGMFTTLGYLICGFRVVLMYRFEEELFLRSLQDYKIQSALLVPTLFSFFAKSTLIDKYDLSNLHEIASGGAPLSKEVGEAVAKRFHLPGIRQGYGLTETTSAILITPEGV
notes: cAMP biosensor, RIIβB E284A and V316I, linker …
For the molecule B1, the “Signal Improvement” value in experiment [1] (fold improvement in luminescent signal over parental GS358 with E284A and V316I, HEK293, 10 μM isoproterenol) was determined as 2.4 fold. The “Response Improvement” value in experiment [1] (fold improvement in response to isoproterenol over parental GS358 with E284A and V316I, HEK293, 10 μM) is reported as 1.4 fold. In experiment [2], the “Isoproterenol-5 minutes Induced” value is listed as 73287 RLU, the “Forskolin (FSK) Induced” value was 161755 RLU, the “Isoproterenol-15 minutes Induced” value turned out to be 173340 RLU and the “Isoproterenol-5 minutes Resp” value came to 60 fold. Further, in experiment [2], the “Forskolin (FSK) Resp” value came out at 47 fold, the “Isoproterenol-15 minutes Resp” value amounted to 51 fold, the “Isoproterenol-5 minutes Uninduced” value was 1231 RLU and the “Forskolin (FSK) Uninduced” value is listed as 3415 RLU. The “Isoproterenol-15 minutes Uninduced” value in experiment [2] amounted to 3415 RLU. Further, in experiment [3], the “Dopamine Induced” value is 1860 RLU, the “Forskolin (FSK) Induced” value was determined as 4709 RLU, the “Halo Induced” value turned out to be 5429 RLU and the “Dopamine Response” value was found to be 0.38 fold. In experiment [3], the “Forskolin (FSK) Response” value is on record as 15 fold, the “Halo Response” value came out at 2.9 fold and the “Forskolin (FSK) Uninduced” value amounted to 307 RLU.

B2: 4H7: 7A1 biosensor with F407Y in RIIβb; SEQ ID NO:35, 36 (protein)
chain: MPGAVGKVVPFFEAKVVDLDTGKTLGVNQRGELCVRGPMIMSGYVNNPEATNALIDKDGWLHSGDIAYWDEDEHFFIVDRLKSLIKYKGYQVAPAELESILLQHPNIFDAGVAGLPDDDAGELPAAVVVLEHGKTMTEKEIVDYVASQVTTAKKLRGGVVFVDEVPKGLTGKLDARKIREILIKAKKGSNWDSGCSREGMYESFIESLPFLKSLEFSARLKVVDVIGTKVYNDGEQIIAQGDSADSFFIIESGEVKITMKRKGKSEVEENGAVEIARCSRGQYFGELALVTNKPRAASAHAIGTVKCLAMDVQAFERLLGPCMEIMKRNIATYEEQLVALYGTNMDIVAKNIKKGPAPFYPLEDGTAGEQLHKAMKRYALVPGTIAFTDAHIEVDITYAEYFEMSVRLAEAMKRYGLNTNHRIVVCSENSLQFFMPVLGALFIGVAVAPANDIYNERELLNSMGISQPTVVFVSKKGLQKILNVQKKLPIIQKIIIMDSKTDYQGFQSMYTFVTSHLPPGFNEYDFVPESFDRDKTIALIMNSSGSTGLPKGVALPHRTACVRFSHARDPIFGNQIIPDTAILSVVPFHHGFGMFTTLGYLICGFRVVLMYRFEEELFLRSLQDYKIQSALLVPTLFSFFAKSTLIDKYDLSNLHEIASGGAPLSKEVGEAVAKRFHLPGIRQGYGLTETTSAILITPEGV
As to B2, the “Fold Response Na proprionate + FSK(1 μM)” value in experiment [4] (with FSK 1 μM) was determined as 2.98 fold. Besides, the “Fold Response Na proprionate” value in experiment [4] (without FSK, ratio of induced to uninduced signal) is listed as 1.94 fold. In experiment [5], the “Fold Signal Change” value is 93.6 fold. In addition, in experiment [2], the “Isoproterenol-5 minutes Induced” value is on record as 42467 RLU, the “Forskolin (FSK) Induced” value was 88555 RLU, the “Isoproterenol-15 minutes Induced” value is listed as 207210 RLU and the “Isoproterenol-5 minutes Resp” value turned out to be 86 fold. In experiment [2], the “Forskolin (FSK) Resp” value was determined as 33 fold, the “Isoproterenol-15 minutes Resp” value was found to be 78 fold, the “Isoproterenol-5 minutes Uninduced” value was determined as 493 RLU and the “Forskolin (FSK) Uninduced” value was determined as 2665 RLU. In addition, the “Isoproterenol-15 minutes Uninduced” value in experiment [2] amounted to 2665 RLU. Moreover, in experiment [3], the “Dopamine Induced” value is 583 RLU, the “Forskolin (FSK) Induced” value amounted to 3180 RLU, the “Halo Induced” value came to 2778 RLU and the “Dopamine Response” value is on record as 0.18 fold. Moreover, in experiment [3], the “Forskolin (FSK) Response” value came to 14 fold, the “Halo Response” value is 4.8 fold and the “Forskolin (FSK) Uninduced” value came to 230 RLU.

These data come from patent publication US9879306B2, “Luciferase biosensors for cAMP” (PROMEGA CORPORATION, priority 2008, dated 2018).
